# Columns and labels:
# [1] = tested on: people at high risk for vascular disease with either IFG, IGT, or early type 2 diabetes; assay: ORIGIN trial: hypoglycemia, weight change and glargine adherence; format: in vivo, human
# Description: Participants were asked to self-administer daily subcutaneous saline injections and to check their capillary glucose levels during a 10 day run-in period. Adherent participants were then provided with lifestyle advice and randomly allocated to either insulin glargine (Lantus™) or standard approaches to glycaemic control. Participants allocated to insulin glargine who were also taking a thiazolidinedione stopped that medication at the time of randomization; otherwise the insulin glargine was added to their glycemic regimen. These participants were instructed to inject insulin glargine in the evening, starting at 2, 4 or 6 units (depending on their initial FPG) and to increase the dose at least once per week targeting a self-measured FPG level ≦5.3 mmol/l (95 mg/dl) and ≧4 mmol/l (72 mg/dl). […] If participants developed uncontrolled hyperglycemia, investigators were permitted to add rapid-acting insulin. No other glucose-lowering medication could be added or increased. FPG levels were measured in the local laboratory at every visit and the results were regularly reviewed along with the dose of insulin to ensure that insulin was being effectively trirated. People not diagnosed with diabetes by the time of the penultimate study visit down-titrated insulin glargine by 10 units per day and stopped any metformin that was prescribed.
# Outcomes and other data were collected at scheduled study visits at 0.5, 1, 2, and 4 months after randomization and every 4 months thereafter. Weight, waist and hip circumference were measured annually. HbA1c levels were assayed in local laboratories at every visit for the first year and then annually in people without diabetes and every 4 months for people with diabetes. A first morning urine collection was sent centrally and assayed for creatinine and albumin at baseline, 2 yrs and study end.
# There were 2 co-primary composite CV outcomes. The first was CV death, non-fatal MI or non-fatal stroke, and the second was a composite of any of these events or a revascularization procedure or hospitalization for heart failure. Secondary outcomes included a composite microvascular outcome comprising a doubling of serum creatinine from baseline, progression of albuminuria category from normoalbuminuria or microalbuminuria to microalbuminuria or overt nephropathy, renal replacement therapy, renal death, retinal photocoagulation or vitrectomy for retinopathy. They also included new type 2 diabetes developing by the time of the 1st post-trial oral glucose tolerance test in participants without baseline diabetes, and all-cause mortality. Other outcomes included incident cancers, CV hospitalizations, and angina. Cardiovascular and cancer outcomes were reviewed by adjudicators masked to treatment allocation. Episodes of hypoglycaemia since the prior visit were recorded at each visit. Symptomatic hypoglycemia was classified as confirmed if a concomitant recorded capillary glucose level was <3 mmol/L (54 mg/dL). Severe hypoglycemia was defined as hypoglycemia that required assistance plus either prompt recovery with glucose or glucagon or a documented capillary glucose ≦2.0 (36 mg/dL). New diabetes was diagnosed if 2 consecutive FPG levels within a 4-month period were ≧7 mM (126 mg/dL) during the trial; a diagnosis of diabetes was made by a physician and a pharmacologic antidiabetic agent was being taken and there was evidence of either a FPG ≧7 mM (126 mg/dL) or any glucose value ≧11.1 mM (200 mg/dL); either 1 or more capillary glucose levels were ≧11.1 mM (200 mg/dl) and a lab-measured FPG was ≧7 mmol/l (126 mg/dl) or a lab measured random glucose level was ≧11.1 mM (200 mg/dl) during down-titration of glargine insulin; or any FPG was ≧7 mM (126 mg/dl) or 2 hour plasma glucose was ≧11.1 mM (200 mg/dl) during the first oral glucose tolerance test.
# [2] = tested on: people at high risk for vascular disease with either IFG, IGT, or early type 2 diabetes; assay: ORIGIN trial: blood triglyceride and cholesterol change; format: in vivo, human; conditions: glargine group
substance,measurement,setting,value
(Gly A21) Arg (B31) Arg (B32) human insulin [insulin glargine],more severe hypoglycemia episodes than standard care,[1]; absolute risk difference,approximately 0.7 per 100 person-years
same,more suspected or confirmed hypoglycemia episodes than standard care,[1]; absolute risk difference,~11 per 100 person-years
same,annual incidence of severe hypoglycemia,[1]; basal insulin in ORIGIN,1.00%
same,"Reason Stopped: N Hyperglycemia (%), Ever Off",[1]; first time off,4 (0.15) N (%)
same,"Reason Stopped: N Hypoglycemia (%), Ever Off",[1]; first time off,218 (8.2) N (%)
same,"Reason Stopped: N Wt Gain (%), Ever Off",[1]; first time off,4 (0.15) N (%)
same,risk of hypoglycemia relative to standard care participants,[1]; higher,approximately 3 fold
same,"Any Symptomatic Hypoglycemia, Mean Number of Episodes/yr",[1]; in vivo,2.6 (4.1) Episodes/yr
same,"Any Symptomatic Hypoglycemia, No Episodes During Follow-up (%)",[1]; in vivo,2691 (43.0) N (%)
same,"Confirmed Symptomatic Hypoglycemia, Mean Number of Episodes/yr",[1]; in vivo,1.3 (2.3) Episodes/yr
same,No Confirmed Episodes During follow-up (%),[1]; in vivo,3652 (58.3) N (%)
same,incidence of the first episode of any (confirmed or unconfirmed) hypoglycemia,[1]; insulin glargine group,16.73 per 100 person-years
same,mean weight gain,[1]; insulin glargine group,1.6 kg
same,participants without any episode of symptomatic hypoglycemia during the entire trial (number),[1]; insulin glargine group,2691 participants
same,incidence of the first episode of nonsevere symptomatic hypoglycemia confirmed by a self-measured glucose level 3 mmol/l (54 mg/dl),"[1]; insulin glargine group, P<0.001",9.81 per 100 person-years
same,incidence of the first episode of severe hypoglycemia,"[1]; insulin glargine group, P<0.001 vs standard care",1.00 per 100 person-years
same,participants without any episode of symptomatic hypoglycemia during the entire trial (percent),"[1]; insulin glargine group, median 6.2 years",43%
same,"Reason Stopped: N Hyperglycemia (%), Permanently Off",[1]; last time off and stayed off,2 (0.2) N (%)
same,"Reason Stopped: N Hypoglycemia (%), Permanently Off",[1]; last time off and stayed off,42 (4.0) N (%)
same,"Reason Stopped: N Wt Gain (%), Permanently Off",[1]; last time off and stayed off,4 (0.4) N (%)
same,"Severe Hypoglycemia, Total Episodes During Follow-up",[1]; median follow-up 6.2 years,457
same,"Any Symptomatic Hypoglycemia, ≧1 Episode (N/100py)",[1]; nonsevere,3573 (16.73) N/100py
same,"Confirmed Symptomatic Hypoglycemia, ≧1 Confirmed Episode (N/100py)","[1]; nonsevere, self-measured glucose ≦3 mmol/l (54 mg/dl)",2612 (9.81) N/100py
same,"Severe Hypoglycemia, ≧1 Episode (N/100py)","[1]; participants (rate per 100 person-years), P<0.001 vs standard care",359 (1.00) N/100py
same,1 or more nonsevere hypoglycemic episodes confirmed by glucose <3 mmol/l (<54 mg/dl),[1]; people with diabetes at enrollment,10.5 per 100 person-years
same,1 or more nonsevere hypoglycemic episodes confirmed by glucose <3 mmol/l (<54 mg/dl),[1]; people without diabetes at enrollment,5.7 per 100 person-years
same,change of triglyceride concentration in the blood,[2]; P<0.001 vs standard care,−0.21 (0.03)
same,Total cholesterol change from baseline to end-of-study,[2]; p 0.044 vs standard care,-0.41 mmol/L

# From patent publication US20150065421A1, “BASAL INSULIN THERAPY” (SANOFI, priority 2012, published 2015)
